Measured values taken from US9260517B2, “Human monoclonal antibodies to human nucleolin” (MUSC Foundation for Research Development, priority 2009, dated 2016).

Assays:
[1] = molecular target: T1, cell surface nucleolin on MV4-11 AML cells (Homo sapiens, UniProt P19338); assay: Flow cytometry (FACS) binding to MV4-11 cells; settings: 5 μg/ml, 30 min on ice
T1 construct: endogenous in cells; host or cells: MV4-11 cells
Experimental: (§1) FIG. 12. Binding of HuMAbs to cell surface nucleolin and cytotoxicity to MV4-11 leukemia cells. (FIG. 12A) Anti-nucleolin HuMabs or Rituxan^R (5 μg/ml) were incubated with MV4-11 or normal tonsil cells for 30 min on ice, washed, then incubated with APC-labeled anti-human IgG (Miltenyi). Flow cytometry was performed on a FACSCaliber, and median fluorescence intensity (MFI) is shown.
analysis was performed using a Becton Dickinson FACSCalibur instrument at the MUSC Flow Cytometry Facility, according to established methods. Infection efficiency of B cells infected with […] was assessed by measuring fluorescence of Green Fluorescent Protein 24 h post-infection. Antibodies used to characterize human B cells were obtained from BD Biosciences and are specific for human CD20, CD19, CD23, CD27, CD30, CD38, IgD, IgM, and IgG.

normal tonsil cells = assay: Flow cytometry binding to normal tonsil cells; set-up: species or system human; settings: 5 μg/ml, 30 min on ice
Experimental: as §1

T1 sequence (P19338 whole entry): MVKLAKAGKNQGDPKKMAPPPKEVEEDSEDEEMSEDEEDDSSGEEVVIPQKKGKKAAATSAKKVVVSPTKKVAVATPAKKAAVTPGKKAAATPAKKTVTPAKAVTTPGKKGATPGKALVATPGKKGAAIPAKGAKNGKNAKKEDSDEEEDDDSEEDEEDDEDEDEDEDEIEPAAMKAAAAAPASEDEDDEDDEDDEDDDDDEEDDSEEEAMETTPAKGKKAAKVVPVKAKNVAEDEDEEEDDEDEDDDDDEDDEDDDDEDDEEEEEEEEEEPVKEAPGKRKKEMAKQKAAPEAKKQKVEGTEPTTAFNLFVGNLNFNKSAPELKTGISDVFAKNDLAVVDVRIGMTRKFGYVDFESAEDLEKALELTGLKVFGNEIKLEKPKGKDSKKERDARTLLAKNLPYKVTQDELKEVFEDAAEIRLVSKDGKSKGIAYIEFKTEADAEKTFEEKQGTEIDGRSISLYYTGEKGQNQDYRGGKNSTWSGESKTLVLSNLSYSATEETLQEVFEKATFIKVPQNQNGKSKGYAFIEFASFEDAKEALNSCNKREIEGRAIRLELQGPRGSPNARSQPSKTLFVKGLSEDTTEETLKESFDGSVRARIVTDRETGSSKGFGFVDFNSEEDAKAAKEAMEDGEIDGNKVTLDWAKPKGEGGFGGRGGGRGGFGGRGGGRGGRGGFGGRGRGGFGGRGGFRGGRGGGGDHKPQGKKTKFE

binding to MV4-11 cells by flow cytometry [1]: not to MV4-11 cells
Substance: rituximab
binding to normal tonsil cells by flow cytometry (normal tonsil cells): bound to normal tonsil cells
